The record followed here is patent US7294753 (Biogen, dated 2007).

What is called Kd is the free concentration of one partner at which half of the binding sites on the other are occupied at equilibrium, for simple one-to-one binding. Low readings indicate tighter binding, high ones weaker binding.

B1: anti-MIF monoclonal antibody 10B11-3 (antibody, V domains shown)
VH: EVQLQQSGPELVKPGASVRISCKTSGYTITEYTMHWMKQSHEKSLEWIGGITPNTGVLSDNQKFRGKATLTVDKSSNTAYMELRSLTSADSAVYYCARRGNNYYGSSPWFAYWGQGTLVTVSA
VL: DIQMTQSPASLSVSVGETVTITCRASENIYSNLAWYQQKQGKSPQLLVYAATNLADGVPSRFSGSGSGTQYSLNIYSLQPEDFGSYYCQHFWGTPYTFGGGTKLEIKR
notes: Mouse hybridoma antibody from a MIF knockout mouse, purified from ascites; also called Mab 10B11-3; 1OB11-3
B2: anti-MIF monoclonal antibody 33G7-9 (antibody, V domains shown)
VH: DVQLQESGPDLVKPSQSLSLTCSVTGYSITSGYYWNWIRQFPGNKLEWVGYLSYDGSKSHNPSLRNRISITRDPSKNQFFLKLNSVTTEDTATYYCARGGKIFYGSSYDPFAYWGQGTLVTVSS
VL: DIQMTQSPASLSASVGETVTITCRASENIFNYLSWYQQKQGKSPQLLVYNVKTLTDGVPSRFSGSGSGTQFSLKINSLQPEDFGSYYCQHHYDTPYTFGRGTKLEIKR
B3: anti-MIF monoclonal antibody 6B5-5 (antibody, V domains shown)
VH: DVQLQESGPGLVKPSQSLSLTCTVTGSSITSDYAWHWIRQFPGNKLEWMGYISFSGSTGYNPSLKSRFSITRDTSKNQFFLQLNSVTTEDTATYYCAREAYGYDVGYFDYWGQGTTLTVSS
VL: QIVLTQSPAIMSAFPGEKVTITCSASSSVSYMHWFQQKPGTSPKLWIYGTSNLASGVPVRFSGSGSGTSYSLTISRMEAEDAATYYCQQRSSYPWTFGGGTKLEIKR
B4: anti-MIF monoclonal antibody 19B11-7 (antibody, V domains shown)
VH: QIQLVQSGPELKKPGETVKISCKASGYSFRNYGMNWVSQPPGKGLEWMGWINTYTGEPTYADDFKGRFAFSLDTSASTAYLTINNLKNEDTATYFCARSNYGNYFDYWGQGTTLTVSA
VL: NIVLTQSPASLALSLGQRATISCRTSESVDSYASSFMHWYQQKPGQSPKLLIYLASNLESGVPARFSGSGSRTDFTLTIDPVEADDAATYYCQQSNEDPRTFGGGTQLEIKR
notes: Mouse hybridoma antibody from a MIF knockout mouse, purified from ascites
B5: anti-MIF monoclonal antibody 29B12-1 (antibody, V domains shown)
VH: EVKLVESGGGSVQPGGSLKLSCATSGFIFSDYYMYWVRQTPEKRLEWVAYISIGSGNTYYPDTVKGRFTISRDIAKNTLYLQMSRLKSEDTAMYYCVRGRLRFLFDYAMDYWGQGTSVTVSS
VL: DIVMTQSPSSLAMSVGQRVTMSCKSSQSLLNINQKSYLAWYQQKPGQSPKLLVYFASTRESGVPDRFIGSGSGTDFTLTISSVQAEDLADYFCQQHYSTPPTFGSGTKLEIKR
B6: anti-MIF monoclonal antibody 22F11-6 (antibody, V domains shown)
VH: EVKLEESGGGLVQPGGSMKLSCAASGFTFGDAWMYWVRQSPEKGLEWVAEIRSKAHNHATYYAESVKGRFTISRDDSKSSVYLQMSSLRAEDTGIYYCTSHHYGSSWYFDVWGAGTTVTVSS
VL: DIQMTQSPASLSASVGETVTITCRASENIYSYLTWFQQKQGKSPQLLVYDAKTLAEGVPSSFSGSGSGTQFSLKIISLQPEHFGSYYCQHHYGRPYTFGGGTKLEIKR
notes: Mouse hybridoma antibody from a MIF knockout mouse, purified from ascites; also called Mab 22F11-6

The first test deals with T1, human macrophage migration inhibitory factor (MIF) (human, UniProt P14174 2-115). Description: cell-based or functional assay.
T1 sequence (P14174 2-115 limits assumed): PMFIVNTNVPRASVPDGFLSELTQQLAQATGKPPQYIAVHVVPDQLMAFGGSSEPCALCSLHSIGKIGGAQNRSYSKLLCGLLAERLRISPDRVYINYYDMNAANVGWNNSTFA
In the case of B1, the “% MIF PPT Activity” value stood at 136%.
Still for that read-out and setting: the figure for B2 is 67%.
The same measure, in the same setting: for B3 the value was 82%; for B4, 0%; for B5, 146%.
The same measure, in the same setting: the figure for B6 is 65%.

In a further test the target is T1, human macrophage migration inhibitory …. Description: cell-based or functional assay. The source holds these as a separate data set.
Consider B1, for which the “% MIF PPT Activity” value worked out at 136%.
B2: the “% MIF PPT Activity” value was determined as 67% and the “MIF Stimulated SRE Transcription (% MIF Activity), 10 µg mab/ml” value came out at 5%.
Turning to B3, the “% MIF PPT Activity” value came out at 82% and the “MIF Stimulated SRE Transcription (% MIF Activity), 10 µg mab/ml” value worked out at 36%.
The matching figures for B4: 0% and 29%.
For B5 the same measures were 146% and 25%.
For B6 the same measures were 65% and 42%.

For the next test the target is unchanged. Description: cell-based or functional assay. This is another data set of the same source.
B1: the “% MIF PPt Activity” value was found to be 136%.
Regarding B2, the “% MIF PPt Activity” value was 67% and the “MIF Stimulated SRE Transcription (% MIF Activity), 10 µg mab/ml” value amounted to 5%.
For B3 the same measures were 82% and 36%.
The matching figures for B4: 0% and 29%.
B5: the “% MIF PPt Activity” value was 146% and the “MIF Stimulated SRE Transcription (% MIF Activity), 10 µg mab/ml” value worked out at 25%.
For B6 the same measures were 65% and 42%.

For the next test the target is unchanged. Description: column 'Binds Human MIF'; method not stated.
Consider B1, for which the Kd is under 0.1 nM.
Same read-out and setting: for B4 the value was under 0.1 nM; for B6, under 0.1 nM.

Another test has the same target. Description: column 'Binds Human MIF'; method not stated. The source holds these as a separate data set.
Molecule B1 returned a Kd of under 0.1 nM.
On the same count and under the same terms, for B4 the value was under 0.1 nM.
Same read-out and setting: the figure for B6 is under 0.1 nM.

Another test has the same target. Description: row 'human MIF Kd < 50 nm'; method not stated.
B1 returned a Kd of under 0.1 nM.
Same read-out and setting: for B6 the value was under 0.1 nM.
